Measurements reported in patent US5969107.
Where “and” joins values, the source holds several entries; their conditions need not be identical. Equal values may be shown once. Values belong to the binder of their own block, whether it stands above or below them.

What was measured:
[1] = target: murine monoclonal anti-EGFR antibody mAb 425 (ATCC HB 9629); test: inhibition CellELISA on fixed A431 cells; reference 5A6 and 3B6
[2] = target: murine monoclonal anti-EGFR antibody mAb 425 (ATCC HB 9629); test: competition ELISA in solution by the method of Friguet, Scatchard plot
[3] = target: Anti-EGFR Ab3 sera from Balb/c and B6D2F1 mice; test: inhibition ELISA: anti-EGFR Ab3 sera preincubated with the Anti-Id, then on coated sEGFR

times more effective in inhibition than 5A6 and 3B6 [1]: 10 times | Kd [2]: 0.3 nM | percentage of inhibition [3]: 15% and 35%
B1: 15H8 monoclonal anti-idiotypic antibody (Ab2) (antibody, V domains shown)
VH: EVQLVESGGGLVKPGGSLKLSCAASGFTFSDYYMYWFRQHPGKRLEWVATISDAGTYTYYPDSLKGRFTISRDNAKNNLYLQMSSLKSEDTAMYFCARDGAARTSSQVYYYGMDYWGQGTSVTVSS
VL: DIVMTQSQKFMSTSVGDRVSITCKASQNVRTAVAWYQQKPGQSPKALIYLASNRHTGVPDRFTGSGSGTDFTLTISNVQSEDLADYFCLQHWNYPLTFGSGTKLEIKR

Kd [2]: 1 nM | percentage of inhibition [3]: 100%
B2: 5A6 monoclonal anti-idiotypic antibody (Ab2) (antibody, V domains shown)
VH: DVKLVESGGGLVKLGGSLKLSCAASGFTFSNYYMSWVRQTPEKRLEFVAAINSNGGSTYYPDTVKGRFTISRDNAKNTLYLQMSSLKSEDTALYYCARHRGRDSSGYVGYAIDYWGQGTSVTVSS
VL: DILLTQSPAILSVSPGERVSFSCRASQSIGTSIHWYQQRTNGSPRLLISILLSLSLGVPSRFSGSGSGTDFTLSINSVESEDIADYYCQQSNSWPYTFGGGTKLEIKR
